Experiments:
[1] = target: CD19-CAR-FRBl2 (CD19 chimeric antigen receptor with two tandem FRBl domains, coexpressed with iCaspase9 from iC9-CAR(19).FRBl2)
[2] = target: Her2-CAR-FRBl2 (Her2 chimeric antigen receptor with two tandem FRBl domains fused to the carboxy terminus); assay: cell-based or functional assay
[3] = target: CD19-CAR-FRBl2 (CD19 chimeric antigen receptor with two tandem FRBl domains, coexpressed with iCaspase9 from iC9-CAR(19).FRBl2); assay: cell-based or functional assay

Chain of CD19-CAR-FRBl2 (CD19 chimeric antigen receptor with two tandem FRBl domains, coexpressed with iCaspase9 from iC9-CAR(19).FRBl2) (chain, as listed by the source mutant limits assumed): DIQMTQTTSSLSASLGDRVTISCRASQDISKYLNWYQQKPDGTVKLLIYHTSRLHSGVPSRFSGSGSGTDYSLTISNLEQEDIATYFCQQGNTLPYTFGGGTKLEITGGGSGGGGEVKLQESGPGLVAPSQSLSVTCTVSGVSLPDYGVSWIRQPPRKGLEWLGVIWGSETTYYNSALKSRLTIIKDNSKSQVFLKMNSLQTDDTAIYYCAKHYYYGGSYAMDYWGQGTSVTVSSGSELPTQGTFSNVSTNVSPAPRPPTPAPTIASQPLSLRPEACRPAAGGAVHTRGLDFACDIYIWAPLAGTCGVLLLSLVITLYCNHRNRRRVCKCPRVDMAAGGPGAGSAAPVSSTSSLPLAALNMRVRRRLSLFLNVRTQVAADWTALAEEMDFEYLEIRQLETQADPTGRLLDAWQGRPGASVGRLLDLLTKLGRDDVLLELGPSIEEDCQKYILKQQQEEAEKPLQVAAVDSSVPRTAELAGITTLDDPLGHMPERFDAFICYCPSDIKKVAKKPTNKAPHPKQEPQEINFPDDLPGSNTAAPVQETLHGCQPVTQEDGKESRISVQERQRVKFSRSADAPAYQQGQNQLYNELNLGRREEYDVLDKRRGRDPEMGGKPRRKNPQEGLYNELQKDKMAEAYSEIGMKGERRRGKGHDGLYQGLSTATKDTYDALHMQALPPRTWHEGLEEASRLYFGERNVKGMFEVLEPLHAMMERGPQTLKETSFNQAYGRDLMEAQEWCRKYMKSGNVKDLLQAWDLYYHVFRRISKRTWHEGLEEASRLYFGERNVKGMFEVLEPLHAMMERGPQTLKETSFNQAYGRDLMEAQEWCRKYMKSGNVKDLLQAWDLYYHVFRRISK
Chain of Her2-CAR-FRBl2 (Her2 chimeric antigen receptor with two tandem FRBl domains fused to the carboxy terminus) (chain, as listed by the source mutant limits assumed): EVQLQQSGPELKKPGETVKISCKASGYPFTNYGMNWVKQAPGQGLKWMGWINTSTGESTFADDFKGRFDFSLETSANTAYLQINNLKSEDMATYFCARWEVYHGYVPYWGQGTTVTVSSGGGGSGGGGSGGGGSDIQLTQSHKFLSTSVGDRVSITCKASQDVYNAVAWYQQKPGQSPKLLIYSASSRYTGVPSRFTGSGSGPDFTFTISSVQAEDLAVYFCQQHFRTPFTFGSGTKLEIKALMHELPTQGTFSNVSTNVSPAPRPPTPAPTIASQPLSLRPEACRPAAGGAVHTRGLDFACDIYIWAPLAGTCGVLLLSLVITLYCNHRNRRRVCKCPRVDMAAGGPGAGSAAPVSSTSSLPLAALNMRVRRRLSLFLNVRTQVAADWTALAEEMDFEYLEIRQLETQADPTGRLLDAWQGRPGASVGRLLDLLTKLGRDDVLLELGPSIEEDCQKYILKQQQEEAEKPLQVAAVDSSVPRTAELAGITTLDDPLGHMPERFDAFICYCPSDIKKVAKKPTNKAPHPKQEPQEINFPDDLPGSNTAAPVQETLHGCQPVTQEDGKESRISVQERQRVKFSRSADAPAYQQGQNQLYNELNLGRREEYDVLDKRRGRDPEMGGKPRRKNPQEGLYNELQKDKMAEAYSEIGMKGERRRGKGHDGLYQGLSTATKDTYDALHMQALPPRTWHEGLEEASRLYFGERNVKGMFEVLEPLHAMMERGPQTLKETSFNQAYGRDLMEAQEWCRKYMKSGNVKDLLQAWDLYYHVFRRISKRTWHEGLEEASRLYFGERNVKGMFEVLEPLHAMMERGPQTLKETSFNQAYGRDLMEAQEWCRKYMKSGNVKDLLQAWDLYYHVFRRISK

IC50 (read off the curve): concentration of the dimerizer rapamycin (not of a protein) at half-maximal loss of SEAP activity, 293 cells expressing iC9.CAR(19)-FRBl2 [1]: 1 nM
SEAP activity (constitutive SRα-SEAP reporter in transfected 293 cells, overnight with half-log dilutions of rapamycin) (% decrease of SEAP activity) [2]: 50
SEAP activity (constitutive SRα-SEAP reporter in transfected 293 cells, overnight with half-log dilutions of rapamycin) (% decrease of SEAP activity) [3]: 50
Substance: inducible Caspase-9 (FKBP12v36 - SGGGSG linker - dCaspase9) (enzyme)

Reference: patent US20160166613A1
